Source: a protein production outcome set (Wang et al. 2014)

Test: label from the status in PepcDB records
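Further: failed if final PepcDB status was selected cloned or expressed and not failed if soluble or beyond.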

Q: With “MTGSQETRITILDAMTANQIAAGEVVERPASVVKELVENSLDAAARHITVEIEGGGLQLIRVRDDGRGIEPEDAPLAFARHATSKIRRAADLARITTLGFRGEALASIAAVARVEMATRPPGRPGGTLVRVAGGKPPEVTETGCPPGTSVTVKDLFYNTPARRQYLKKPSTEARAIVATVERLALGHPGVAFSLSLDGRRSLATPGNGDLQAVLAALYGLEIGRELLPFNGSGAGWSLHGFTSPPWLHRSNRDQQVLLINGRYITNRLLTWAIESCYRNVIPAGRHPLFVLHLAVDPGEVDVNVHPAKLEVRLQREQDLARQVTNLVKGALFTPRAVAPATISRSGDRKGAGSAPPVQQGFTFREPDKQARYWGEYVLRERARENREPEWPEKTGENTGAIKTREVPEGNGPVERDKPDPIGPETPAEETGKQVLPPLRALGQVFNTYILAGGEDGLYIIDQHAAHERCRYEALVKEGTPGSHPAQMLEPPLPLHLAPDMQVKLIDQIITLRELGFIIEEFGTGVFLLRSVPLGIPPGKEREVLEDFLAESTLPAPERLLKLIACHGAIKAGQSLAGAEMQKLLDDLRGVDHPYTCPHGRPAVVRLDEAQLARYFHRHLK” as the sequence, how does the protein production read?
A: Its protein production is “failed”.

Q: Which protein production does the source give for “MADQAPRPAREFVVEADGGSRGNPGPAGYGAVVLDPVTGEALVEAAEYLGVVTNNVAEYRGLLAGLRAAAELDPDATVHVRMDSKLVVEQMSGRWKIKHPDMKPLAAEAARVFPPGRVTYEWIPRASNKHADRLANEAMDAGARGEAWSPSDSTAELDAAAADRAAPAGRTAGSRRTGAASAVAPAGTEGGDGGEPAPDGGGAAAGEPLARAGRDRVDAASLGAGTRAATSTGASATGTSGTGASATGTSGTGASATGAPGLGVAAETSGEADVRAAKVVASPGWGPPDMGAPATFVLLRHGETPLTPQKRFSGSGGSDPSLSPVGREQAERVAASLARRGTIEAVVASPLARTRETAGIVAARLGLEVAIEEGLRETDFGAWEGLTFGEVRERHPADLDAWLASPDAEPTGGGESFAATGTRIAATRDRLVAAYAGRTVLLVSHVTPIKTFVRLALGAPPESLFRMELSAASLSAVAYYADGGASVRLFNETSHLR” here?
A: Its protein production is “failed”.

Q: Which protein production does the source give for “SLSSTELGDLFWSWLRDGLREGDIPVNTADACVHLTCGFVFISVPGVFFLFLKSHSRSCSSGLKESGRKEQVQAAFEKMRKHRVSDSRRFWQCCLYEEPGGRGRYKKLTGYLIKMSEIYANGNFPDDSLFLKVIN” here?
A: Its protein production is “not failed”.

Q: Which protein production does the source give for “MKSFDGHNDLLARLWLSEHPDPVGMFLKGQLPGHLDFARCQQAQFAGGLFAIFVPPFDYVKNNHPYKLRKSAQAGFDTQDIHHIVFTQLDYIKQIASRSDRRIQICLSVEDIQFCLQQDIMAVVIHLEGAEVLDSEFGVLEQLHARGLRSIGPLWNLPNQFGHGLQASFPHSPDTGLGLTDQGKALIQLCSEKRIMIDVSHMNEKAFWDTAKISELPLIATHSNVHQLCPQPRNLTDAQLEAIQASQGCVGVNFDTAFLRPDGQRNAATSLDLILEHIEYLMHKLGEDQVAFGSDFDGGFISDHLKDVTGLIHLQQAFERRGYSQALQEKLCHQNWLSALQRVWHPAC” here?
A: Its protein production is “failed”.

Q: Which protein production does the source give for “MGKGCAASLWPTAIGPRMPRPLSLLPRPAGLMLRLVGSLVLTLWLVWLLADRLALLAPGEVIAALSGLPVWRLAAALLATAVSFWALGRYDGVAHRHFRTGLAARQARLCGMAAIGFSQFVGCGVLSGSFARWRMIGDLTPALALRLTTFVAITFLLALAFWASALCLIAPPLPGLRQTGVAGLALLLPITLVLFLLPRLRLGRFTLRLPSLRALGAILGWAALDLAAAAAVLWVLLPALSWTDLPLLMSAYVLALAAGLLSGAPGGLGAFELTLLALLPAIPGAELMAAVLAYRLIYVALPALAAVPLLLSPPDLRLGRQHRLPRRIHHHPPARPRAETAVVTQSRGYVLSGGFADMAVVETDQSLIMLFDPVCGGRHPDLYLLARRAAQRNLFALVYKCSARVAVSARRAGWRVRHVSDEATLVPADFTIAGSHRRQLRRKLRQAERAGLTVRRASTLPLTQMAAVDRLWQEANGRAWGLTMGRFAPDYLARQAVFLAWRGARLEGFVSFHRSRDEWCLDLMRTHPDAPEGTMHALVATALAATAAARVPRLSLAAVPAGRLGHRFDGLRQFKDSFAPRWQPLYMAAPGWTAIALAAADLARHVQAPPPLAAPDAQPAHDLDEEIEFASLTGT” here?
A: The protein production was “failed”.

Q: For “MGIDPVTHRATHKTKRVEATANTFKAVATEWLKEVHQKAVVEEHYNRNVRRLEQHAFPKLGRRPISEIEPSDILEPLRDIAKTGRRETAKRVKTLIGQVFRYTVSTGRAQRDMTADIRGILPALEHHHHHH”, which protein production is on record?
A: The protein production was “failed”.

Q: For “MRRSFLKTIGLGVIALFLGLLNPLSAASYPPIKNTKVGLALSSHPLASEIGQKVLEEGGNAIDAAVAIGFALAVVHPAAGNIGGGGFAVIHLANGENVALDFREKAPLKATKNMFLDKQGNVVPKLSEDGYLAAGVPGTVAGMEAMLKKYGTKKLSQLIDPAIKLAENGYAISQRQAETLKEARERFLKYSSSKKYFFKKGHLDYQEGDLFVQKDLAKTLNQIKTLGAKGFYQGQVAELIEKDMKKNGGIITKEDLASYNVKWRKPVVGSYRGYKIISMSPPSSGGTHLIQILNVMENADLSALGYGASKNIHIAAEAMRQAYADRSVYMGDADFVSVPVDKLINKAYAKKIFDTIQPDTVTPSSQIKPGMGQLHEGSNTTHYSVADRWGNAVSVTYTINASYGSAASIDGAGFLLNNEMDDFSIKPGNPNLYGLVGGDANAIEANKRPLSSMSPTIVLKNNKVFLVVGSPGGSRIITTVLQVISNVIDYNMNISEAVSAPRFHMQWLPDELRIEKFGMPADVKDNLTKMGYQIVTKPVMGDVNAIQVLPKTKGSVFYGSTDPRKEF”, which protein production is on record?
A: The protein production was “failed”.

Q: For “MQKGNIRIAIDKGGTFTDCVGNIGTGKQEHDTVIKLLSVDPKNYPDAPLEGIRRLLEVLEHKTIPRGIPLDISNVRSLRMGTTLATNCALERNGERCAFITTKGFKDSLLIGDQTRPDIFNLNIKKVVPLYDTVVEIDERVTLEDFSEDPYFTKSSPNEQEGILEGNSGEMVRVIKKPDESSVRSILKVLYASGIKSIAIAFLHSYTFPDHERIVGNIAREIGFSHVSLSSEVSPMIKFLPRAHSSVADAYLTPVIKKYLNSISAGLSHAEDTHIQFMQSDGGLVDGGKFSGLKSILSGPAGGVIGYSSTCYDKNNNIPLIGFDMGGTSTDVSRYGDGRLEHVFETVTAGIIIQSPQLDIHTVAAGGSSILSWKNGLFRVGPDSAAADPGPAAYRKGGPLTITDANLFLGRLVPEFFPKIFGPNEDESLDLETTTLKFRELTDVINKDLNSNLTMEEVAYGFIKVANECMARPVRAITEAKGHVVSQHRLVSFGGAGGQHAIAVADSLGIDTVLIHRYSSILSAYGIFLADVIEENQEPCSFILGEPETILKVKKRFLELSKNSIKNLLSQSFSREDIVLERYLNLRYEGTETSLMILQKYDDQWNFREWFSEAHKKEFGFSFDDKRIIIDDIRIRAIGKSGVRKEKTVDEQLIEISHFKKADVSKDASFTQKAYFDNKWVDTAVFKIDDLPAGTIIEGPAILADGTQTNIILPNSQATILNSHIFIKINQKAAKTLSKSGYELDIDPILLSIFSHRFMDIALQMGTQLRKTSVSTNVKERLDFSCALFDSKGNLVANAPHVPVHLGSMSTCISAQAKLWEGKLKPGDVLITNHPDIGGTHLPDITVITPSFSSTGELIFYVASRAHHADIGGILPGSVPPNSKELYEEGTAIYSELVVKEGIFQEELIYKLFVEDPGKYPGCSGSRRFSDNISDLKAQVAANTKGIQLIGSLTKEYDLATILKYMAAIQTNASESIKKMLAKMVEHFGTTKFSGEDRLDDGSLIKLQVIIRPEKEEYIFNFDGTSPQVYGNLNAPEAITNSAILYCLRCLVGEDIPLNQGCLKPLTIKIPAGSLLSPRSGAAVVGGNVLTSQRVTDVILKTFNVMADSQGDCNNFTFGTGGNSGNKTDKQIKGFGYYETICGGSGAGADSWRGSGWNGSDAVHTNMTNTRMTDTEVFERRYPVLLKEFSIRRGSGGKGKYTGGNGVVRDVQFRKAVTASILSERRVIGPHGIKGGQDGSRGENLWVRHSTGALINVGGKNTIYAQPGDRFIIKTPGGGGFGQYKD”, which protein production is on record?
A: The protein production was “failed”.

Q: For “MASRFQEASLVTSPSYPNAVAWSSENLIAVAAGHLVIIINPALPTGPRGLITISDAELYQIGRVRSQDLLTGGLLPSSLKRERSPCVRSLSWSEIGMSPNHGCLLAVCTAEGRVKLYRPPYSDFCAEWIEIVDISKMLYENLSSMNFGESKNPSTSLSKDQVVEHDHEEDERISSLKARKRRKTSANNINLHEKNYTDRASCSKQDSKAEHNVLEIEVYKQASNGQDRRSLPKALKKCSQEISPQTYVSREALLSSHSVAWSSLLRFSSESSCGNMLRFSLLAIGSKSGSVSIWKVHAPECYHIERSNVSPMVELTAIVQTHSSWVSTMSWGIFGCDSSNPQVVLVTGSCDGSVKIWMSNKEDLQNSVEVYKSSFFLLKEVVAVNPVQVSTLSFVVSNHYNAMHLAIGKGSGSFEVWKCEISTRKFEQIVSTNAHNQVVTGLAWSYDGRCLYSCSQDNYVRSWILCENAISEVPIPANTPGLSSTTDLPDDFLSCLGVALSPGNLAVALVRNFNVELLNPMYQARSQKAAVEFLWNGAQQSGESEDSTETVTEAILGFSKNEFANWESNILWSLKEFNYLNKPLVLWDMVAAMLAFKQSMPEFVELVLTKWLSVSYLGFHDDISMEDLVPKITKRFSDVPSRLLHILNVISRRVMLSELKTEEINRKLQGQRTNDEGEIDLWLKLLQESERELRERLVGLSFSAYLLAESSQGTISPPSWNWRPAGLALLQQWVEINRDIVHSQLETLSLEVKSSRTRSSNSTETALEEEKCPYCAAPVNFHSAEEAFCESSHQKKKKSKDKERCDESHKLERCCVSMQVCPPTPLWFCKCCNRMTLELAPETLFALPSFPSDLKSLPKSSFSKVASKPFCLFCGVLLQRKQPEFLLSASPV”, which protein production is on record?
A: Its protein production is “failed”.

Q: Which protein production does the source give for “LDYQRLYGTRCFSCDQFIEGEVVSALGKTYHPDCFVCAVCRLPFPPGDRVTFNGKECMCQKCSLPVSV” here?
A: Its protein production is “not failed”.

Q: For “MDADHLQRIFDEAVQAHGEGRLDEAEAGFRAVLEVLPHEGEALFGLGLTLMGLRRFSEAIPPLKAAAAEPGAEPVRFLCLAQGLYMTGAFAEAAETFAAVAHQDGFNDGARLTWARSAAYAALDDTDADSALALYGQIAGPVAEDLDTVAREGFSTLVAFERLAAARKLGQWLEARAPDDAIRAHELRVLTDPQIDRAPPAYVEALFDAFAERFDHQLLDNLEYQTPTLLAEMIGVADRRFTHMLDLGCGTGLAGPPLRARVARLTGVDLSTAMLAKAAERGGYDALVHAEAVAFLRETPDRFDLIVAADVFSYLGDLGDILAAAAGALSDDGLLAFSVEQGETWWRLLPSARYAHGDDYVRAAGAGVGLEVIQHRQTPLRRQADAAIPGGLYVLRKIRAA”, which protein production is on record?
A: The protein production was “failed”.

Q: With “MKPSVSITGEQEAHKVAAIFETETDANGVARVLSQETSLDHEQVIVVSPQDQHPGEELEPENQGIWQTLVRSHLWLGIGGAVAGFIVFLILSAIGVGFIAQNGVVAAAVLAALGLILGLLVAGGVTLRPDHTPYVAKAQSALKEGKYVLTVHASSSEQLKEATTVLKNRNVRLVRTI” as the sequence, how does the protein production read?
A: Its protein production is “failed”.

Q: With “MTSFAQLDIKSEELAIVKTILQQLVPDYTVWAFGSRVKGKAKKYSDLDLAIISEEPLDFLARDRLKEAFSESDLPWRVDLLDWATTSEDFREIIRKVYVVIQEKEKTVEKPTAL” as the sequence, how does the protein production read?
A: The protein production was “not failed”.

Q: For “VPRIAEVRDAAEPSSEEQRARHVRMLEAAIELATEKELARVQMHEVAKRAGVAIGTLYRYFPSKTHLFVAVMVDQIDRMGVGFKKSAPPGESPQDAVYNVLVRATRGLLRRPALSTAMIQSTSTANVASVPDAGKVDRAFRQIMLDAAGIEHPTEEDLTALRLLVQLWFGVIQSCLNGRVSIPDAESDIRRACDLLLVNLSHR”, which protein production is on record?
A: Its protein production is “not failed”.

Q: With “MHNDFNLLILSGPSGAGKSTLTKYLQEKIPKTHFSLSTTTRKPREGEVDGLHYNFVSEEEFKQGIEKGQFLEWAIVHNHYYGTSKIPVEKALKEGKIVIFDIDVQGHEILKKHYPNACSVFISTKNQEILKERLLLRGTDSKETIEKRLINAYKEMQCLESFDYLIINEDLEKSKEIILSIAKTLVHRLKAFNFEKICKAWKNETL” as the sequence, how does the protein production read?
A: Its protein production is “failed”.
